# B1: FGF8: growth factor tested for NE fate specification (protein, UniProt P55075 23-233, looked up)
# Fibroblast growth factor 8: QEGPGRGPALGRELASLFRAGREPQGVSQQHVREQSLVTDQLSRRLIRTYQLYSRTSGKHVQVLANKRINAMAEDGDPFAKLIVETDTFGSRVRVRGAETGLYICMNKKGKLIAKSNGKGKDCVFTEIVLENNYTALQNAKYEGWYMAFTRKGRPRKGSKTRQHQREVHFMKRLPRGHHTTEQSLRFEFLNYPPFTRSLRGSQRTWAPEPR
# B2: BMP4: bone morphogenetic protein (protein, UniProt P12644 293-408, looked up)
# Bone morphogenetic protein 4: SPKHHSQRARKKNKNCRRHSLYVDFSDVGWNDWIVAPPGYQAFYCHGDCPFPLADHLNSTNHAIVQTLVNSVNSSIPKACCVPTELSAISMLYLDEYDKVVLKNYQEMVVEGCGCR
# B3: BMP5: bone morphogenetic protein (protein, UniProt P22003 317-454, looked up)
# Bone morphogenetic protein 5: AANKRKNQNRNKSSSHQDSSRMSSVGDYNTSEQKQACKKHELYVSFRDLGWQDWIIAPEGYAAFYCDGECSFPLNAHMNATNHAIVQTLVHLMFPDHVPKPCCAPTKLNAISVLYFDDSSNVILKKYRNMVVRSCGCH
# B4: BMP7: bone morphogenetic protein (protein, UniProt P18075 293-431, looked up)
# Bone morphogenetic protein 7: STGSKQRSQNRSKTPKNQEALRMANVAENSSSDQRQACKKHELYVSFRDLGWQDWIIAPEGYAAYYCEGECAFPLNSYMNATNHAIVQTLVHFINPETVPKPCCAPTQLNAISVLYFDDSSNVILKKYRNMVVRACGCH
# B5: Activin A: ligand in TGF-β pathway directing NE cell fate specification (protein, UniProt P08476 311-426, looked up)
# Inhibin beta A chain: GLECDGKVNICCKKQFFVSFKDIGWNDWIIAPSGYHANYCEGECPSHIAGTSGSSLSFHSTVINHYRMRGHSPFANLKSCCVPTKLRPMSMLYYDDGQNIIKKDIQNMIVEECGCS
# System: hindbrain R1 neuroepithelial cells
# Assay: NE progenitor fate specification of hindbrain R1 neuroepithelial cells (qPCR of MASH1, PHOX2B, PHOX2A and regional markers)
# Type: cell-based, human
# Conditions: for effect on expression of MASH1, PHOX2B, and PHOX2A: day 6 to day 12
# Description: On day 5, change the medium without SB431542. […] Cells were feed daily.
# Development of NE neurons in LC depends on expression of Mash1, Phox2b and Phox2a in a stage dependent manner. See Pattyn et al., 2000, Mol Cell Neurosci, 15:235-243; Morin et al., 1997, Neuron, 18:411-423; Hirsch et al., 1998, Development, 125:599-608. Mash1 is expressed in the proliferative progenitor cells, while Phox2b and Phox2a are expressed when cells became postmitotic precursors and neurons. Pattyn et al., 2000. […] Thus, the effects of FGF8 and BMPs were tested in the second week of differentiation (FIG. 2B).
# In further experiments it was determined whether the unique role of Activin A on human NE neuron specification was regional identity dependent. Neuroepithelial cells ranging from anterior forebrain to posterior hindbrain were obtained using different doses of CHIR99021, and then these neuroepithelial cells were treated with 25 ng/ml Activin A for 6 days.
# Specifically, gene expression of MASH1 and PHOX2A/2B at different times was observed when NE progenitors were cultured in the presence of a low dose of Activin A (25 ng/ml) or a high dose of Activin A (125 ng/ml).
# To determine whether blockade of BMP pathway or SHH pathway could facilitate NE specification, which could narrow the domain along the dorsal to ventral axis, hindbrain R1 neuroepithelial cells were treated with Activin A with or without BMP and SHH antagonist (FIGS. 3D-3I).
molecule,measurement,setting,value
"CC(C)Oc1ccc(-c2cnc3c(-c4ccnc5ccccc45)cnn3c2)cc1 [DMH1, 4-[6-(4-Isopropoxyphenyl)pyrazolo[1,5-a]pyrimidin-3-yl]quinoline]",increase of NE progenitor markers,"2 μM, with Activin A",1.5 fold
CC1=C2C[C@H]3[C@@H](CC=C4C[C@@H](O)CC[C@@]43C)[C@@H]2CC[C@]12O[C@@H]1C[C@H](C)CN[C@H]1[C@H]2C [cyclopamine],effect on NE progenitor markers MASH1 and PHOX2A/2B,"2 μM, with Activin A",only minor effects
same,expression of dorsal markers MATH1 and OLIG3,"2 μM, with Activin A",increased expression
TGF-β1: transforming growth factor β1,"effect on expression of MASH1, PHOX2B, and PHOX2A",10 ng/ml,not
B1,"effect on expression of MASH1, PHOX2B, and PHOX2A",100 ng/ml,no obvious effects
B2,"effect on expression of MASH1, PHOX2B, and PHOX2A",10 ng/ml,no obvious effects
B3,"effect on expression of MASH1, PHOX2B, and PHOX2A",10 ng/ml,no obvious effects
B4,"effect on expression of MASH1, PHOX2B, and PHOX2A",10 ng/ml,no obvious effects
B5,concentration at which MASH1 reached maximum expression level,,25 ng/mL
same,concentration at which PHOX2B and PHOX2A reached maximum level,,250 ng/mL
same,"effect on expression of MASH1, PHOX2B, and PHOX2A",10 ng/ml,positive effect
same,"PHOX2B expression, high dose (125 ng/ml) versus low dose (25 ng/ml)",day 9,similar
same,"MASH1 expression, high dose (125 ng/ml) versus low dose (25 ng/ml)",day 9 to day 12,no obvious difference
same,"PHOX2B expression, high dose (125 ng/ml) versus low dose (25 ng/ml)",day 12,over 2 fold
same,"increase of MASH1, PHOX2B, and PHOX2A expression with dose",series of Activin A concentrations,dose-dependent manner
